Patent publication US9663800B2, “Alkane exporter and its use” (Nanyang Technological University, priority 2012, dated 2017)

Experiments:
ABC2 mRNA = assay: Quantitative RT-PCR of ABC2 transcripts after alkane treatment; assay type: cell-based; settings: Y. lipolytica CLIB122, 24 h alkane treated vs. untreated, normalized to actin, p<0.05
Text: (§1) FIG. 3. mRNA transcripts levels of ABC2 and ABC3 in Y. lipolytica. Quantitative RT-PCR analysis of ABC2 (A) and ABC3 (B) in Y. lipolytica cells corresponding to treatment with octane, nonane, decane, undecane and dodecane (C8-C12). Each value of qRT-PCR was normalized to β-actin expression levels and expressed as the fold change relative to the levels detected in control samples, which were cells without alkane treatment and set equal to 1. Error bars represent the SD of triplicate.
(§2) To assess whether ABC1, ABC2, ABC3 and ABC4 are involved in alkane transport in Y. lipolytica, we analysed the effects of alkanes with different chain length (C8-C12) on the transcription levels of these four ABC transporter genes using quantitative RT-PCR.
(§3) Total RNA samples from 24 h alkane treated and untreated Y. lipolytica CLIB122 cells were prepared using RNeasy Mini Kit (Qiagen), followed by cDNA synthesis using H minus Reverse transcriptase kit (Fermentas). Quantitative RT-PCR analysis was performed on a Bio-Rad iQ5 real-time PCR detection system using SsoFast EvaGreen Supermix kit (Bio-Rad). The actin gene (YALI0D08272g) was used as reference gene for Y. lipolytica. Relative mRNA levels were derived using comparative CT method.

ABC3 mRNA = assay: Quantitative RT-PCR of ABC3 transcripts after alkane treatment; assay type: cell-based; settings: Y. lipolytica CLIB122, 24 h alkane treated vs. untreated, normalized to actin, p<0.05
Text: as §1, §2, §3

S. cerevisiae BY4741 [1] = assay: Alkane susceptibility test in liquid culture; assay type: cell-based, Saccharomyces cerevisiae; settings: for decane tolerance increase: cells expressing the transporter vs. control (0.25% decane), OD600; for decane tolerance increase / decane concentration tolerated: 48 hr, 28° C.; for survival in 20% undecane / decane concentration tolerated: cells expressing the transporter; for decane concentration tolerated: control 0.25% decane
Protocol: (§4) FIG. 2. Alkane susceptibility test for S. cerevisiae. The alkane susceptibility was tested in cells expressing ABC2/3 or with empty plasmid. (A) Alkane susceptibility test on agar plate. Serial dilutions of cells expressing ABC2/3 were spotted on agar plates with alkanes (decane, undecane) as vapour phase. Plates were incubated at 28° C. for 2 days. (B) Alkane susceptibility test in liquid culture. Overnight cell culture was diluted into induction medium (final OD600=0.4) with different alkanes (decane & undecane) concentrations. The plates were incubated for 48 hr at 28° C. The OD600 value of each sample was determined and plotted against its corresponding alkane concentration. Symbols for strains are: control sample with empty plasmid (open circle), cells expressing ABC2 (filled circle), cell expressing ABC3 (filled triangle).
Overnight culture was diluted into 5 ml induction medium in 50 ml glass bottle (Sigma) at an initial OD600 of 0.4. Alkanes were added as different final concentration. Bottles were sealed tightly with butyl rubber stopper (Sigma) and silver aluminum seal (Sigma). Liquid culture was performed at 28° C. with shaking. Growth was monitored by measuring the OD600 at different time point. Cell culture used for time point OD checking was collected from the glass bottle using needle and syringe.
To further analyze the effect of ABC2 and ABC3 toward decane and undecane, alkane susceptibility tests in liquid culture were conducted. […] With the expression of ABC2, decane tolerance was boosted about 80-fold (20% vs. 0.25% decane) and cells can survive in 20% undecane. For ABC3, decane tolerance is increased slightly by about 3-fold (0.75% vs. 0.25% decane) and cells are resistant to 20% undecane. It is apparent that the expression of ABC2 and ABC3 transporters improved the tolerance toward C10 and C11 alkanes.

S. cerevisiae BY4741 [2] = assay: Alkane susceptibility test on agar plate; assay type: cell-based, Saccharomyces cerevisiae; settings: cells expressing the transporter, 28° C., 2 days; for cell tolerance toward decane: decane as vapour phase; for cell tolerance toward undecane: undecane as vapour phase
Protocol: as §4
Alkane susceptibility test on plates was performed according to the methods of Mauersberger et al.. Exponentially growing cells in induction medium were centrifuged and re-suspended with induction medium at OD600=1. Ten microliter aliquots of successive 10-fold dilutions (non diluted, 10-1, 10-2, 10-3) of cells were spotted onto the induction medium plate. Medium chain alkanes were supplied as vapour phase by placing 200 μl alkane on a sterile filter paper in the lid of the petri dish. Plates were incubated at 28° C. for 2 days.
Toxicity test was implemented to study the effect of ABC2 and ABC3 on the tolerance of the cells toward alkanes. The toxic effects of alkanes on S. cerevisiae with ABC2 and ABC3 were measured through alkane susceptibility test on agar plates. […] It was observed that the expression of ABC2 would lead higher tolerance toward decane than ABC3.

S. cerevisiae BY4741 [3] = assay: Intracellular alkane accumulation (GC-FID) in cells expressing ABC2/3; assay type: cell-based, Saccharomyces cerevisiae; settings: S. cerevisiae BY4741 expressing the transporter, 48 h, control with empty plasmid; for lower intracellular decane level relative to the control: 0.5% decane; for reduction of intracellular undecane level compared to the control sample: 20% undecane
Protocol: FIG. 1. Intracellular alkane accumulation by ABC2 and ABC3. S. cerevisiae BY4741 with and without ABC2/3 were cultured under exposure of 0.5% alkane or 20% undecane. After 48 h incubation, intracellular alkane levels were measured. Intracellular alkane levels were normalized to that of control carrying empty plasmid. Data shown are the mean±SD of four biological replicates.
Intracellular alkane accumulation was analysed with GC-FID after 48 h incubation with 0.5% decane or 20% undecane.
After induction for 48 h with or without addition of alkanes, S. cerevisiae cells transformed with pYES2, pYES2ABC2 and pYES2ABC3 were harvested at 6000 g for 5 min at 4° C. After washing with 50 mM Tris.Cl, cells were equally divided into two parts, one part for alkane GC analysis and the other for determination of total protein concentration. For GC analysis, cell pellets were re-suspended in freshly prepared Chloroform/Methanol (v/v, 2:1). Dodecane was added into cell suspension as an internal standard. Acid-washed glass beads were added until the suspension was covered. Cells were then lysed by mechanical agitation using FastPrep-24 (MPBio) for 6 min at 6 m/s. The crude extract was obtained by pipette. After addition of autoclaved ddH2O, the crude extract was emulsified for 10 min by inversion. After centrifuge, the crude extract was separated into two phases. The bottom phase containing alkane was transferred into a new 1.5 ml microcentrifuge tube and purified as above with HPLC grade chloroform and autoclaved ddH2O until particulate matter was no longer observable. The purified solution was transferred into a clear GC vial for GC analysis. To check the total protein concentration, Cell pellets were re-suspended into 50 mM Tris.Cl and lysed via mechanical agitation with acid-washed glass beads using FastPrep-24 for 6 min at 6 m/s. Protein concentration of obtained crude extract was determined using the Bradford protein assay (Bio-Rad). Intracellular alkane levels were normalized to internal standard and cell lysate protein content.

Row | Molecule | mRNA levels of ABC2 (ABC2 mRNA) | mRNA levels of ABC3 (ABC3 mRNA) | decane tolerance increase (S. cerevisiae BY4741 [1]) | survival in 20% undecane (S. cerevisiae BY4741 [1]) | decane concentration tolerated (S. cerevisiae BY4741 [1]) | cell tolerance toward decane (S. cerevisiae BY4741 [2]) | cell tolerance toward undecane (S. cerevisiae BY4741 [2]) | lower intracellular decane level relative to the control (S. cerevisiae BY4741 [3]) | reduction of intracellular undecane level compared to the control sample (S. cerevisiae BY4741 [3])
1 | CCCCCCCCC [nonane] | significantly increased | significantly increased | – | – | – | – | – | – | –
2 | ABC2: Y. lipolytica ABC transporter, SEQ ID NO. 4, GenBank CAG82364, heterologously expressed in S. cerevisiae (protein, listed as Yarrowia lipolytica) MEQTPPDYTGLDKNIDAEVRSIAESMYQTRREGVNDSDTDEELQRTNTIQPNLNVNPFLDTSDPQLDPLSKEFNSRKWIKTILGLKARFGNSRSISAGVSFKNLSAFGYGGGNDYQKTFTNSVMAIGPMIKKVLGGNKGSEVQILRHFDGLVRAGETCVVLGRPGSGCTTFLKSVACETYGFHLGEKSEWNYQGVPRDVMQKNARGEIVYNAEVDVHFPHLTVGDTLLFAALARTPQNRLEGVSREQHATHVRDVSMAMLGLTHTMDTKVGNDFVRGVSGGERKRVSIAESVVCGAPLQCWDNSTRGLDAANATEFIRSLRLSAEMTDASMFVSLYQASQEAYDMFDKVCVLYEGRQIYFGKTTEAKQFFLDLGFDCADRQTTGDFLTSLTNPIERIIRPGWESRVPRTPDDFEKCWLESEARQLLLQDIDEFNNEFVLGGPALDNFMGLRKDAQAKHTRVQSPYTISWPMQTRLCLWRGFLRIKGDMSTDIATVFGNFVMALVLSSMFYNMPQTTESFFSRGALLFFAILINAFASILEILSLYEQRPIVDKQNRYAMYHPAADALAAIITTFPTKTLTLVSVNLTIYFMTNLRREVGPFFIFFLFSLLCTMAMSMIFRTIGSVTKTLEQALAPASIIILALVIYTGFSLPISYMHGWARWINWLNPVAYGFEAVMVNEFRNREYECSMFVPSGGAYENVSLDYRSCAAVGAEPGLRFVNGDAFINQSYEYYNAHLWRNMGILFGFIIFFGAFYLFAVEYIQGAKSKGEVLVFRKEHIKKQRKEKNGDIESGVTMAGEKGTQESESSNTSINLQAQRGIYQWKDVCYDIKVKDGERRLLDHVDGFVKPGTLTALMGASGAGKTTLLDVLADRKSTGVVTGEMLVNGEHRDGSFQRKTGYVQQQDLHTATATVRESLEFSALLRQPSSIPESEKLAYVDEVIRILEMETYADAVVGVPGEGLNVEQRKRLTIGVELAAKPELLLFLDEPTSGLDSQTAWSIVKLLKKLAANGQAILCTIHQPSAILFQEFDRLLFLASGGRTVYYGDIGPQSSILTEYFERNGADPCPKQGNPAEWMLEVIGAAPGSTAKRDWPVVWAESPERAAKREELDEMARTVERVQTNTTERDSTGYSDSDQFAVGWWTQFKIVSKRQFQALWRTPSYLWSKVFLCAASAIFIGFSFFKAPNDMQGLQNKMFSFFMLFLIFNTVVEQIIPQFDKMRELYEARERSSKTYSWQVFMGSNMVVELIWQFFMGVIVFFCFYYPVGFQWTAEYNDSVHERGGLFFLYVLLLFLYNSTFAHMLIAGIDNKDTAAQIGTLLFTLMLLFCGVLATKEQMPGFWVFMYRVSPLTYFVGGMMATGMGRAPVTCSPHELVRFPAVPGKSCGEYMDGFISALGDSAGYLVSSSADMCEYCPMKSSDQFLDSVDISYTQRWRNWGILWAYPLFNIFAAFALYYFFRVPKKSKAQKA | – | – | about 80 fold | can survive | 20% | considerably improved | considerably improved | ~5 fold | approximately 30 fold
3 | ABC3: Y. lipolytica ABC transporter, SEQ ID NO. 5, GenBank CAG82646, heterologously expressed in S. cerevisiae (protein, listed as Yarrowia lipolytica) MTDPVPITQDPTIYSSQQDAEIRSLAESIHSQHSNNSNNSTELTNPYVDTSDPELDPWSGQFNSRKWSRTILGLKRRYGTSKEITAGVSFKNLGAYGYGGGADYQKTVANAVLGLEGVVRTLFHLEKKEDKVQILSDFNGVLWPGETCVVLGRPGSGCTTLLKSIACETYGFQLDKETEWNYQGIPRKIMQKTCRGEIVYNAEVDVHFPHLTVGDTLMFASLARTPQNRFDGVTREQYAKHTRDVTMASLGLSHTLDTKVGNDFVRGVSGGERKRVSIAESIVCGSPLQCWDNSTRGLDAATATEFLRWLRHSAELTGASMFVSLYQASQEAYELFDKVTVLYEGQQIYFGPGEQAKQYFEEMGFECPHRQTTGDFLTSITSPAERIVAPGFEGKTPRTASEFAERWRQSQAYANLQEEIERFNTEFPVGGNRVADIMELKQEKQSDHIKVSSPYTISIPMQVKLCLTRGFQRLRGDLSMALTTVLGNFVVALILSSMFYNMPEDTSSFFSRGALLFFAMLMNAMSSVLEIIVLYELRPIVEKHQRYAMYHPFCEALASIICDFPTKFLTMLCVNVTLYFMSNLRREAGPFFIFFLFTLLCVLAMSMIFRTIAAVTKTLQQALAPAAVIILALIIYTGFTLPISYMRGWARWINYIDPIAYGFEAVMVNEFRNREFPCALFIPQQSTYDQLGSPYQGCMAVGAKPGERFVNGDRYLEMAFDYSQAHLWRNLGIMFGFILFFAFTYLTAVEFIQSAKSKGEVLVFLRSSLKQRKKRAHLMDVEANAEKVGAAQDREILVQQEEGQQEETSSCTPSDSTPKDIFQWKDVCYDIKVKGGEKRLLDNVDGWVKPGTLTALMGCSGAGKTTLLDVLADRKATGVITGDMRVNGQKRDASFQRKTGYVQQQDLHTATSTVREALEFSALLRQPSNVPKAEKIAYVDEVIDILEMQAYADAVVGVPGEGLNVEQRKRLTIGVELAAKPELLLFLDEPTSGLDSQTAWSIICLLKKLANRGQAILCTIHQPSAILFQEFDRLLFMTLGGKTVYYGDIGANSSALINYFESKGADPCPEEANPAEWMLAAIGAAPGSIAKHDWAVVWNESEERARERDLLDKMAEELAAQSTHDEKNELVTSKSVGSSQTSSSSYSAKSQYATSQATQLYYLTKRLWTYYWRSPRYIWSKLLMSIASALFIGFSYYKASQDIQGLQNQMFAFFMLFLIFVIIMVQILPHFVAQRELYEARERSSMAYSWQAFMGSNILVELPWQTLVAVLVFFCFYYPIGLQNNATGHLGERGALFFLLLWSFYVYNSTFAHMMGAAFENKENAATIGYLLFALCLIFCGVLATKEDMPHFWIFMYRVSPLTYLISGLLSAGVGETRVECTDNELVLFKPMNGTNCGKYMHPFMEGLGHTDMPMGYLVDPSATDMCGYCPISNTNGYLDQIDVKYSQRWRNYGILFAYPAFNVFMAFAFYYIFRVPKKSRKQKA | – | – | about 3 fold | resistant | 0.75% | considerably improved | considerably improved | ~5 fold | approximately 30 fold
